Data reported in the Human Domainome abundance scans (Beltran et al. 2025).
± gives the uncertainty stated by the source.

B1: SWI/SNF complex subunit SMARCC2, residues 599 to 641; numbered along this chain, Q8TAQ2 (parent)
chain: REWTEQETLLLLEALEMYKDDWNKVSEHVGSRTQDECILHFLR
B2: Zinc finger homeobox protein 4, residues 2183 to 2238; numbered along this chain, Q86UP3 (parent)
chain: SSRTRFTDYQLRVLQDFFDTNAYPKDDEIEQLSTVLNLPTRVIVVWFQNARQKARK

Variants of: B1
Experiment: abundance fitness (aPCA) (normalised: wild type 0, dead -1); higher = more abundant; growth selection in yeast, the domain comes from the species named
Details: Homo sapiens

Variant	abundance fitness
AEWTEQETLLLLEALEMYKDDWNKVSEHVGSRTQDECILHFLR [R1A]	0.244 ± 0.084

Variants of: B2
Experiment: as above
Details: Homo sapiens

Variant	abundance fitness
SSRTRFTDYQVRVLQDFFDTNAYPKDDEIEQLSTVLNLPTRVIVVWFQNARQKARK [L11V]	-0.024 ± 0.16
SSRTRFTDYQLRVLQDFFDTNAYPKDDEIEQLSTVLVLPTRVIVVWFQNARQKARK [N37V]	-0.056 ± 0.084
SSRQRFTDYQLRVLQDFFDTNAYPKDDEIEQLSTVLNLPTRVIVVWFQNARQKARK [T4Q]	-0.269 ± 0.16
SSRPRFTDYQLRVLQDFFDTNAYPKDDEIEQLSTVLNLPTRVIVVWFQNARQKARK [T4P]	-0.109 ± 0.11
SSRKRFTDYQLRVLQDFFDTNAYPKDDEIEQLSTVLNLPTRVIVVWFQNARQKARK [T4K]	-0.571 ± 0.15
SSRFRFTDYQLRVLQDFFDTNAYPKDDEIEQLSTVLNLPTRVIVVWFQNARQKARK [T4F]	-0.182 ± 0.16
SSRERFTDYQLRVLQDFFDTNAYPKDDEIEQLSTVLNLPTRVIVVWFQNARQKARK [T4E]	-0.368 ± 0.13
SSRTRFTDYQLRVLQDFFDTNAYPKDDEIEQYSTVLNLPTRVIVVWFQNARQKARK [L32Y]	-0.118 ± 0.15
SSRTRFTDYQLRVLQDFFDTNAYPSDDEIEQLSTVLNLPTRVIVVWFQNARQKARK [K25S]	-0.025 ± 0.09
SSRTRFTDYQLRVLQDFFDTNAYPGDDEIEQLSTVLNLPTRVIVVWFQNARQKARK [K25G]	-0.072 ± 0.082
SSRTRFTDYQLRVLQDFFDTNAYTKDDEIEQLSTVLNLPTRVIVVWFQNARQKARK [P24T]	-0.698 ± 0.14
SSRTRFTDYQLRVLQDFFDTNAYYKDDEIEQLSTVLNLPTRVIVVWFQNARQKARK [P24Y]	-0.746 ± 0.19
SSRTRFTDYQLRVLQDFFDTNAYAKDDEIEQLSTVLNLPTRVIVVWFQNARQKARK [P24A]	-0.272 ± 0.099
SSRTRFTDYQLRVLQDFFDTNAYPKDDEIEQLSTVLNLPTRVIVVWFQNARQKALK [R55L]	0.223 ± 0.13
SSRTRFTDYQLRVLQDFFDTNAYPKDDEIEQLSTVLNLPTRVIVVWFQNARQKAMK [R55M]	0.154 ± 0.3
SSRTRFTDYQLRVLQYFFDTNAYPKDDEIEQLSTVLNLPTRVIVVWFQNARQKARK [D16Y]	-0.458 ± 0.22
SSRTRFTDYQLRVLQRFFDTNAYPKDDEIEQLSTVLNLPTRVIVVWFQNARQKARK [D16R]	-0.083 ± 0.088
SSRTRFTDYQLRVLQDFFDTNAYPKDDEIEQLSTVLNLPTRGIVVWFQNARQKARK [V42G]	-0.065 ± 0.086
SSRTRFTDYQLRVLQDFFDTNAYPKDDEIEQLSTVLNLPTRAIVVWFQNARQKARK [V42A]	-0.093 ± 0.12
SSRTRFTDYQLRVIQDFFDTNAYPKDDEIEQLSTVLNLPTRVIVVWFQNARQKARK [L14I]	-0.184 ± 0.14
SGRTRFTDYQLRVLQDFFDTNAYPKDDEIEQLSTVLNLPTRVIVVWFQNARQKARK [S2G]	-0.004 ± 0.077
SNRTRFTDYQLRVLQDFFDTNAYPKDDEIEQLSTVLNLPTRVIVVWFQNARQKARK [S2N]	0.125 ± 0.15
SMRTRFTDYQLRVLQDFFDTNAYPKDDEIEQLSTVLNLPTRVIVVWFQNARQKARK [S2M]	0.102 ± 0.17

Variant	abundance fitness
SSRTRFTDYQLRVLQDFFDTNAYPKDDEIEQLSTVLNLPTRVINVWFQNARQKARK [V44N]	0.002 ± 0.082
SSGTRFTDYQLRVLQDFFDTNAYPKDDEIEQLSTVLNLPTRVIVVWFQNARQKARK [R3G]	0.297 ± 0.065
SSPTRFTDYQLRVLQDFFDTNAYPKDDEIEQLSTVLNLPTRVIVVWFQNARQKARK [R3P]	0.09 ± 0.12
SSMTRFTDYQLRVLQDFFDTNAYPKDDEIEQLSTVLNLPTRVIVVWFQNARQKARK [R3M]	0.344 ± 0.12
SSFTRFTDYQLRVLQDFFDTNAYPKDDEIEQLSTVLNLPTRVIVVWFQNARQKARK [R3F]	0.32 ± 0.2
SSRTRFTDYQLRVLQDTFDTNAYPKDDEIEQLSTVLNLPTRVIVVWFQNARQKARK [F17T]	-0.086 ± 0.11
SSRTRFTDYQLRVLQDFFSTNAYPKDDEIEQLSTVLNLPTRVIVVWFQNARQKARK [D19S]	-0.131 ± 0.093
SSRTRFTDYQLRVLQDFFQTNAYPKDDEIEQLSTVLNLPTRVIVVWFQNARQKARK [D19Q]	-0.071 ± 0.14
SSRTRFTDYQLRVLQDFFRTNAYPKDDEIEQLSTVLNLPTRVIVVWFQNARQKARK [D19R]	-0.147 ± 0.079
SSRTRFTDYQLRVLQDFFDTNALPKDDEIEQLSTVLNLPTRVIVVWFQNARQKARK [Y23L]	0.008 ± 0.085
SSRTRFTDYQLRVLQDFFDTNATPKDDEIEQLSTVLNLPTRVIVVWFQNARQKARK [Y23T]	-0.093 ± 0.12
SSRTRFTDYQLRVLQDFKDTNAYPKDDEIEQLSTVLNLPTRVIVVWFQNARQKARK [F18K]	-0.194 ± 0.11
SSRTRFTDYQLRVLQDFFDTNAYPKDDEIEQLSTVLNLPTRVIVVWFQNARQKFRK [A54F]	-0.06 ± 0.12
SSRTRFTDYQLRVLQDFFDTNAYPKDDEIEQLSTVLNLPTRVIVVWFQNARQKDRK [A54D]	-0.068 ± 0.12
SSRTRFTHYQLRVLQDFFDTNAYPKDDEIEQLSTVLNLPTRVIVVWFQNARQKARK [D8H]	0.124 ± 0.17
SSRTRFTDYQLRVLQDFFDTNAYPKDDEIEQLSTVLNLWTRVIVVWFQNARQKARK [P39W]	-1.22 ± 0.17
SSRTRFTDYQLRVLQDFFDTNAYPKDDEIEQLSTVLNLKTRVIVVWFQNARQKARK [P39K]	-0.245 ± 0.14
SSRTRFTDYQLRVLQDFFDTNAYPKDDEIEQLSTVLNLMTRVIVVWFQNARQKARK [P39M]	-0.69 ± 0.17
SSRTRFTDYQLRVLQDFFDTNAYPKDDEDEQLSTVLNLPTRVIVVWFQNARQKARK [I29D]	-0.876 ± 0.23
SSRTRFTDYQLRVLQDFFDTNAYPKDDEIEQLSTVLNTPTRVIVVWFQNARQKARK [L38T]	-0.007 ± 0.075
SSRTRFTDYQLRVLQDFFDTNAYPKDDEIEQLSTVLNEPTRVIVVWFQNARQKARK [L38E]	-0.366 ± 0.14
SSRTRFTDYQLRVLQDFFDTNAYPKDDEIEQLSTVLNRPTRVIVVWFQNARQKARK [L38R]	-0.416 ± 0.086
SSRTRFTDYQLRVLWDFFDTNAYPKDDEIEQLSTVLNLPTRVIVVWFQNARQKARK [Q15W]	-0.333 ± 0.098
